Legend:
[1] = target: MAGEA1 peptide VRFFFPSL (SEQ ID NO: 1) presented by HLA-C*07:02 (human); test: cell-based or functional assay
[2] = target: … (10) (Homo sapiens, UniProt C*07:02); test: cell-based or functional assay

B1: MAGEA1 TCR 32-41 (TCR, V domains shown)
V domain 1: QLLEQSPQFLSIQEGENLTVYCNSSSVFSSLQWYRQEPGEGPVLLVTVVTGGEVKKLKRLTFQFGDARKDSSLHITAAQPGDTGLYLCAGDESISYGKLTFGQGTILTVHP
V domain 2: DAGVIQSPRHEVTEMGQEVTLRCKPISGHDYLFWYRQTMMRGLELLIYFNNNVPIDDSGMPEDRFSAKMPNASFSTLKIQPSEPRDSAVYFCASSFLGWNEKLFFGSGTQLSVLE
B1 was tested, and the “EC50 [table, row MAGEA1, column Peptide EC50]” value [1] was about 250 pM.

B2: MAGEA1 TCR 32-39 (TCR, V domains shown)
V domain 1: DQQVKQNSPSLSVQEGRISILNCDYTNSMFDYFLWYKKYPAEGPTFLISISSIKDKNEDGRFTVFLNKSAKHLSLHIVPSQPGDSAVYFCAASAQNNDMRFGAGTRLTVKP
V domain 2: NAGVMQNPRHLVRRRGQEARLRCSPMKGHSHVYWYRQLPEEGLKFMVYLQKENIIDESGMPKERFSAEFPKEGPSILRIQQVVRGDSAAYFCASSPSYEQYFGPGTRLTVTE
For B2, the “EC50 (read off the curve) [left panel '4hr Killing (IFP)']” value [2] was about 8 ng/mL.

From US20230270832A1 (TSCAN THERAPEUTICS, published 2023)
